Data published in patent publication US20200179510A1, “LOW DENSITY LIPOPROTEIN RECEPTOR RELATED PROTEIN 5 INHIBITION SUPPRESSES TUMOR FORMATION” (YALE UNIVERSITY, priority 2017, published 2020).

Assays:
primary mouse NK cells = assay: IL-15-cultured primary mouse NK cells (flow cytometry, Western); type: cell-based
Method: (§1) Cells in single cell suspension were fixed with 2% PFA (Santa-Cruz sc-281692). After washing with a Flow Cytometry Staining Buffer (eBioscience 00-4222-26), cells were stained with antibodies for cell surface markers for 1 hour on ice in the dark. For staining of intracellular proteins, the cells were washed and resuspended in the Permeabilization Buffer (BD 554723) and stained by antibodies in the Permeabilization Buffer for 1 hour on ice in the dark. The cells were then pelleted and resuspended in the Flow Cytometry Staining Buffer for flow cytometry analysis.
Mouse primary NK and CD8+ T cells were isolated from the spleens by using the NK cell and CD8+ T cell isolation kits according to the manufacturer's instructions (Miltenyi Biotec #130-090-864 and #130-104-075), respectively. Primary NK cells were cultured in RPMI-1640 (Gibco, 11875-093) supplemented with 10% FBS, penicillin (100 U/ml), streptomycin (100 μg/ml), 2-mercaptoethanol (500 μM) and HEPES (10 mM) at 37° C. supplemented with 5% CO2 in the presence of recombinant murine IL-15 (50 ng/ml) for 24 hours before treatment with DKK2, CHIR99021, or WNT3A. CD8+ T cells were cultured in the same culture medium and condition as NK cells, but supplemented with IL-15 (200 ng/ml) and IL-15 Rα (1 μg/ml recombinant Mouse IL-15 receptor alpha Fc chimera Protein from R&D) for 96 hours before DKK2 treatment. Mouse primary intraepithelial lymphocytes (IELs) were prepared as described in (Little et al., The Journal of Immunology 175, 6713-6722 (2005) and Li et al. Infect Immun 80, 565-574 (2012)). In brief, the small intestine was everted, divided into four pieces, and washed twice in phosphate-buffered saline (PBS) containing 100 U/ml penicillin/streptomycin The specimens were then incubated with stirring at 37° C. in prewarmed Ca2+ and Mg2+-free Hanks' solution containing 100 U/ml penicillin-streptomycin, 5% fetal calf serum (FCS), 2 mM dithiothreitol (DTT), and 5 mM EDTA for 30 min, followed by vigorous shaking for 30 s. The supernatants were passed over two nylon wool columns to remove undigested tissue debris. The lymphocytes obtained were pooled and enriched on a discontinuous (40% and 70%) Percoll density gradient. Cells at the interface between the 40% and […], fractions (IELs) were collected for treatment with IL-15 (200 ng/ml) and DKK2 (200 ng/ml), followed by flow analysis.

human NK cells = assay: Human NK cells cultured with IL-15; type: cell-based; settings: human IL-15 50 ng/ml, 10 nM human DKK2, 24 hour
Method: Peripheral blood mononuclear cells from normal humans were purchased from ZenBio (SER-PBMC-200). Human NK cells were isolated from the PBMCs by using the human NK cell isolation kit according to the manufacturer's instruction (Miltenyi Biotec #130-092-657). Human NK cells were cultured in RPMI-1640 (Gibco, 11875-093) supplemented with 10% heat-inactivated FBS, penicillin (100 U/ml), streptomycin (100 μg/ml), 2-mercaptoethanol (500 μM) and HEPES (10 mM) at 37° C. supplemented with 5% CO2 in the presence of recombinant human IL-15 (50 ng/ml) before treatment with recombinant human DKK2 protein.

[1] = tested on: primary mouse NK cells with MC38 or YUMM1.7 cells; assay: NK and tumor cell co-culture; type: cell-based; settings: NK cells pre-treated with DKK2 8 nM 24 hrs, MC38 7:1
Method: Primary NK cells were isolated from the spleens as described above and cultured in the presence of 50 ng/ml recombinant murine IL-15 for 24 hours. Meanwhile, tumor cells were plated in the 96 well plate for overnight. NK cells were added into the tumor cells at 7:1 radio in the presence of the IgG3 antibody or anti-DKK2 5F8 for 9 hours at 37° C. For testing the effect of DKK2 in co-culture, isolated NK cells were cultured in the presence of 50 ng/ml recombinant murine IL-15 for 24 hours and then cultured in the presence or absence of DKK2 for another 24 hours before the NK cells were added to pre-seeded MC38 cells at 7:1 (NK:MC38) radio. The numbers of live tumor cells were determined by a Guava flow cytometer (EMDmillipore), whereas the cell apoptosis was assessed by flow cytometry using an Annexin V apoptosis detection kit (eBioscience, 88-8007).

[2] = tested on: Wnt reporter gene TOPFlash; assay: Wnt reporter gene (TOPFlash) assay in HEK293 cells; type: cell-based
Method: The Stat5 reporter assays were done in HEK293T cells for activated JAK1-induced activity or in those stably expressing JAK3, IL2/15Rβ and the common receptor γ subunit for IL15 induced activity. Cells were seeded at 8×10^4 cells per well in 48 well plate. The next day, cells were transfected by Lipofectamine 2000 (Invitrogen) with the pGL4.52-STAT5-Luciferase (Promega) and tagRFP (internal control) plasmids together with other plasmids expressing genes of interest. The total amount of plasmid was kept at 125 ng per well. The cells were added 24 hours after transfection with IL15/IL15Rα-Fc complex or mock. Six hours later, the cells were lysed and subjected to RFP fluorescence and luciferase luminescence measurement using an Envision Multilabel plate reader. The reporter gene activity is shown after being normalized against RFP readings. The LEF reporter assay was carried out in HEK293 cells that were transfected with the TOPFlash and GFP plasmids. The rest is the same as above. The reporter gene activity is shown after being normalized against GFP readings.
A functional mouse monoclonal anti-DKK2 antibody (5F8) was developed to specifically target and neutralize DKK2, but to not cross react with DKK-1. […]

[3] = tested on: phospho-STAT5 nuclear localization; assay: Immunocytostaining of phospho-STAT5 localization in NK cells; type: cell-based, mouse
Method: They were then placed on poly-lysine coated coverslips and incubated for 30 min at room temperature. Cells were fixed with 4% PFA for 10 min at room temperature and permeabilized with ice-cold methanol for 10 min at −20° C. After rinsed with PBS for 3 times, cells were blocked with a blocking buffer (5% normal donkey serum and 0.5% triton in PBS) for 1 hr at room temperature. Primary antibodies were then diluted in PBS with 0.5% BSA and applied to cells with overnight incubation at 4° C. Cells were rinsed with PBS for 3 times and incubated with diluted fluorochrome-conjugated secondary antibodies (in PBS with 1% BSA) for 1 hr at room temperature. Finally, cells were rinsed with PBS for 3 times and mounted with Prolong Gold Antifade solution (Thermo Fisher) for confocal microscopy.

LRP5 = target: T1, LRP5 (Homo sapiens, UniProt O75197); assay: LRP internalization assay, LRP5; type: cell-based; settings: HEK293 cells, DKK2 4 nM
T1 construct: endogenous in cells; host or cells: HEK293
T1 sequence (O75197 32-1615): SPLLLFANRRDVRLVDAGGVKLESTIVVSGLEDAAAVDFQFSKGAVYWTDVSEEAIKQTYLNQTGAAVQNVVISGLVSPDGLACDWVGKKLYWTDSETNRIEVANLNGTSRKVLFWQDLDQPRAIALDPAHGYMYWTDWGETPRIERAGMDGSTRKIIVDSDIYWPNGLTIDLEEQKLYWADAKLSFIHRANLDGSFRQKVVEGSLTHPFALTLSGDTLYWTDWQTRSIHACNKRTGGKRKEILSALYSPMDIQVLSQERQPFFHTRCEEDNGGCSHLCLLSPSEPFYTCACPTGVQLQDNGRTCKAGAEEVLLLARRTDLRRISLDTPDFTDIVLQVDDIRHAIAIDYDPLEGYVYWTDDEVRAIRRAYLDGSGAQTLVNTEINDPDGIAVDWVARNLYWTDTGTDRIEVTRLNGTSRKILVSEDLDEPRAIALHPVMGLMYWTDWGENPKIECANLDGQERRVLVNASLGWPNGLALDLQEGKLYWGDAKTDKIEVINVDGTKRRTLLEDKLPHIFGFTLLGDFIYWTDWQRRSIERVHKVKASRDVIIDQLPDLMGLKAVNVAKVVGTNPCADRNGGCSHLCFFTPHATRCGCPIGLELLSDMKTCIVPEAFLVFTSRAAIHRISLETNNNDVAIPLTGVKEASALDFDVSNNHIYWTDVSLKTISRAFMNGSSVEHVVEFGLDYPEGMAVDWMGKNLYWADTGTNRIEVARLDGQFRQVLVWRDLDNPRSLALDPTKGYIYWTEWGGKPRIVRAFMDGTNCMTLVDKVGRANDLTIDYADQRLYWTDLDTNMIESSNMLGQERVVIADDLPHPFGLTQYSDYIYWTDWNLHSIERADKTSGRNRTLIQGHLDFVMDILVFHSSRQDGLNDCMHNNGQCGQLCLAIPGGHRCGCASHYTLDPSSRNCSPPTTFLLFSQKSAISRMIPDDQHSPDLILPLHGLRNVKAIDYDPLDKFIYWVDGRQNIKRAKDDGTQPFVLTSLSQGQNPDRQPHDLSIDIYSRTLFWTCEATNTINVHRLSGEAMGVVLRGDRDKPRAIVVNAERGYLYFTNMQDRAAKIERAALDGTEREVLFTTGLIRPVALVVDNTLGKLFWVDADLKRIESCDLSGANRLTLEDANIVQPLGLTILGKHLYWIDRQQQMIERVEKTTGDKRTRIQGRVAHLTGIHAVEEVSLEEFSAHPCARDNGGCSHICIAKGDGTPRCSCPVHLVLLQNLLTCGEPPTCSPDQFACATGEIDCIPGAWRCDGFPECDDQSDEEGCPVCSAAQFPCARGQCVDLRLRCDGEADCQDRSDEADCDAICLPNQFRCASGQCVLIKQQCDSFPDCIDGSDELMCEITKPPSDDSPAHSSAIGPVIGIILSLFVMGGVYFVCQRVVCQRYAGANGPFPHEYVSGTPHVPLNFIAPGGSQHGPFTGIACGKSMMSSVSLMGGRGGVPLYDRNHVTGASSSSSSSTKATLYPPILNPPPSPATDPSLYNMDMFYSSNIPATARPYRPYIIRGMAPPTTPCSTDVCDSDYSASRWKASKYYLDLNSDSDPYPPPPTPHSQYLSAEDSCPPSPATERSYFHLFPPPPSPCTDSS
Method: (§2) HEK293 cells were treated with mock or recombinant mouse DKK2 protein (4 nM) in culture medium for duration indicated. The cells were washed with pre-cold PBS and cell surface proteins were biotinylated with 0.5 mg/ml of EZ-Link Sulfo-NHS-SS-Biotin (Thermo Fisher, 21445) in a PBS buffer on ice for 30 min. The reaction was stopped by addition of PBS containing ice-cold 50 mM NH4Cl, followed by repeated washes with ice-cold PBS. The cells were then lysed with in a buffer containing 1.25% Triton X-100, 0.25% SDS, 50 mM Tris HCl PH8.0, 150 mM NaCl, 5 mM EDTA, 5 mg/ml iodoacetamide, 10 ug/ml PMSF, and the Roche proteinase inhibitor cocktail. After centrifugation, aliquots were taken as lysate controls, and the rest of supernatants were used in pull-down with NeutrAvidin beads (Thermo Fisher, 29200), followed by analysis by Western blotting.

[4] = tested on: CD8+ intraepithelial cells from intestines; assay: Mouse primary intraepithelial lymphocytes; type: cell-based; settings: IL-15, 10 nM DKK2, 24 hour
Method: (§3) Mouse primary NK and CD8+ T cells were isolated from the spleens by using the NK cell and CD8+ T cell isolation kits according to the manufacturer's instructions (Miltenyi Biotec #130-090-864 and #130-104-075), respectively. Primary NK cells were cultured in RPMI-1640 (Gibco, 11875-093) supplemented with 10% FBS, penicillin (100 U/ml), streptomycin (100 μg/ml), 2-mercaptoethanol (500 μM) and HEPES (10 mM) at 37° C. supplemented with 5% CO2 in the presence of recombinant murine IL-15 (50 ng/ml) for 24 hours before treatment with DKK2, CHIR99021, or WNT3A. CD8+ T cells were cultured in the same culture medium and condition as NK cells, but supplemented with IL-15 (200 ng/ml) and IL-15 Rα (1 μg/ml recombinant Mouse IL-15 receptor alpha Fc chimera Protein from R&D) for 96 hours before DKK2 treatment. Mouse primary intraepithelial lymphocytes (IELs) were prepared as described in (Little et al., The Journal of Immunology 175, 6713-6722 (2005) and Li et al. Infect Immun 80, 565-574 (2012)). […]

[5] = tested on: mouse primary CD8+ T cells; assay: Mouse primary CD8+ T cells; type: cell-based
Method: as §3

LRP6 = target: T2, LRP6 (Homo sapiens, UniProt O75581); assay: LRP internalization assay, LRP6; type: cell-based; settings: HEK293 cells, DKK2 4 nM
T2 construct: endogenous in cells; host or cells: HEK293
T2 sequence (O75581 20-1613): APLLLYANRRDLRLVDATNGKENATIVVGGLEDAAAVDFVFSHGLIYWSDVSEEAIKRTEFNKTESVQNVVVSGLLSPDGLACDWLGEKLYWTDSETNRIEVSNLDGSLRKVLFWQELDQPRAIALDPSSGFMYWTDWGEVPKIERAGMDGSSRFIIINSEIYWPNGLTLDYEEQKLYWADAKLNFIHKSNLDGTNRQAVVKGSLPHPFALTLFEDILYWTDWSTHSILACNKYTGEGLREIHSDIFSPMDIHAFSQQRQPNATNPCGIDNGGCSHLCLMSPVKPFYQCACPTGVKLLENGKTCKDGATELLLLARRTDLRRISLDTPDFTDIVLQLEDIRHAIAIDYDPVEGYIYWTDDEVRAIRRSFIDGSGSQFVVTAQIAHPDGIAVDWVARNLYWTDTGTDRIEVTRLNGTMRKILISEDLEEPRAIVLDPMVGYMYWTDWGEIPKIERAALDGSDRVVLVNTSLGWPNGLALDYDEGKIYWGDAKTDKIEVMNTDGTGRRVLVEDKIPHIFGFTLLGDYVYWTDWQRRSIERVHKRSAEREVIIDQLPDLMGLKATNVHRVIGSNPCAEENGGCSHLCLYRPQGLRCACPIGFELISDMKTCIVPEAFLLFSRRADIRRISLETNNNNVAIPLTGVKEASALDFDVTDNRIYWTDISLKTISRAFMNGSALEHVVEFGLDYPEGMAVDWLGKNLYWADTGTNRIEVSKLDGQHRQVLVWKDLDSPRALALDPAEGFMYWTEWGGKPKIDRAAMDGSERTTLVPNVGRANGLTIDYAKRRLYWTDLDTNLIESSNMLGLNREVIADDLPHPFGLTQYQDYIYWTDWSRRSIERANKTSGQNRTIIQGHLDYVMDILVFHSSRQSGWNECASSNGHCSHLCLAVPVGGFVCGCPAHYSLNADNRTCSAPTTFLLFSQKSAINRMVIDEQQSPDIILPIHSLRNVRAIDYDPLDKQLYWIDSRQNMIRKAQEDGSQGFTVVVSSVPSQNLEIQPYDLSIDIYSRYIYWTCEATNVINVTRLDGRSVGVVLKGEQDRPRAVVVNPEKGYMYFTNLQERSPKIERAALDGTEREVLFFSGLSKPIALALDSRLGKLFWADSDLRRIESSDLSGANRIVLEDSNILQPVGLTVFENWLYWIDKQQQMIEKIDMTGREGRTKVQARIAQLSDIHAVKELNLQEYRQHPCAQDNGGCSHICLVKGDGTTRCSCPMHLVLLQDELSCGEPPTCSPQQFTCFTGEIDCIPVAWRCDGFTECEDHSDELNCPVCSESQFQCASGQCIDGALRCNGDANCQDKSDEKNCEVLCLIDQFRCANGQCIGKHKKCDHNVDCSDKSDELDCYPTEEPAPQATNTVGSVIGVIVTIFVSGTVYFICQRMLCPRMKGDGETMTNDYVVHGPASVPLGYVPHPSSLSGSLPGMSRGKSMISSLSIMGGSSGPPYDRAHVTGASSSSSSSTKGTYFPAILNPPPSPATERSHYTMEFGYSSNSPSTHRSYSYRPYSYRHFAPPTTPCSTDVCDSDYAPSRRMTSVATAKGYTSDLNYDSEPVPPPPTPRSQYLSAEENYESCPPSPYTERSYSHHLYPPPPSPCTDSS
Method: as §2

[6] = tested on: tumor infiltrated leukocytes (CD8+ and NK1.1+ cells); assay: Flow cytometry of tumor infiltrated leukocytes, MC38 tumors; type: in vivo, mouse; settings: MC38, intratumoral DKK2 protein 600 ng/25 μl/tumor, three times every 8 hours
Method: Tumors were minced using scissors and scalpel blades and incubated with a digestion buffer [RPMI1640, 5% FBS, 1% PS, 25 mM HEPES and 300 U collagenase (Sigma C0130)] in a shaker for 2 h at 37° C. Disperse cells were filtered through a 70 μm cell strainer to eliminate clumps and debris. After centrifugation for 5 minutes (500×g) at 4° C., cell pellets were resuspended in the Red Blood Cell Lysis Buffer (Sigma R7757) and incubated at RT for 5 min to remove erythrocytes. Cells were pelleted again, resuspended and incubated in 0.05% Trypsin/EDTA at 37° C. for 5 min, followed by DNA digestion with the addition of Type I DNase (1 μg/ml final, Sigma D4263) for 5 min. Trypsin digestion was stopped by the addition of FBS to 5%, and cells were filtered again by a 40 μm cell strainer. Finally, the cells were pelleted again and resuspended in PBS at a concentration of […].
as §1, with “The cells were then pelleted and resuspended in the Flow Cytometry Staining Buffer for flow cytometry analysis.” left out

internalization of LRP5 (LRP5): induces internalization of LRP5
internalization of LRP6 (LRP6): not LRP6
B1: DKK2: Recombinant Dickkopf 2 protein (mouse; human for human NK cells), also used as conditioned medium (protein)
chain: KLNSIKSSLGGETPAQSANRSAGMNQGLAFGGSKKGKSLGQAYPCSSDKECEVGRYCHSPHQGSSACMLCRRKKKRCHRDGMCCPGTRCNNGICIPVTESILTPHIPALDGTRHRDRNHGHYSNHDLGWQNLGRPHSKMPHIKGHEGDPCLRSSDCIDGFCCARHFWTKICKPVLHQGEVCTKQRKKGSHGLEIFQRCDCAKGLSCKVWKDATYSSKARLHVCQKI
granzyme B (Western) (primary mouse NK cells; DKK2-treated samples): reduced granzyme B
perforin (Western) (primary mouse NK cells; DKK2-treated samples): reduced perforin
phosphorylated STAT5, ERK and AKT stimulated by IL-15 (primary mouse NK cells; DKK2 treatment, Western): No notable changes in phosphorylated STAT5, ERK, and AKT
dose dependence of inhibition of NK cell activation (primary mouse NK cells; FIG. 4F): dose-dependent
granzyme B and NK activation markers (primary mouse NK cells; IL-15 50 ng/ml 24 hrs, then DKK2 8 nM 24 hours): significant reductions in granzyme B as well as a number of other NK activation markers, including CD69, IFNY, CD107a, and CD314
activation of LRP5-deficient NK cells (primary mouse NK cells; LRP5-/- NK cells): failed to inhibit
activation of primary NK cells lacking LRP6 (primary mouse NK cells; Lrp6-/- NK cells): could still inhibit the activation
granzyme B expression in human NK cells (human NK cells): inhibit granzyme B expression in human NK cells
ability of pre-treated NK cells to cause tumor cell apoptosis and death [1]: reduced ability to cause tumor cell apoptosis and death
Wnt reporter gene activity ([2]; DKK2 5 nM, Wnt3a 2 nM, CHIR 1 μM, 6 hrs (FIG. 10D)): inhibited
Wnt reporter activity ([2]; HEK293, TOPFlash, conditioned medium (FIG. 1E)): inhibited Wnt signaling
co-localization of phospho-STAT5 with EEA1 ([3]; DKK2-treated NK cells): partially co-localized with early endosome marker
localization of phospho-STAT5 in NK cells ([3]; IL-15, DKK2-treated primary NK cells): cytosolic localization of phospho-STAT5 was readily detected
phospho-STAT5 nuclear localization in NK cells lacking LRP5 ([3]; LRP5-/- NK cells): failed to cause impairment of phospho-STAT5 nuclear localization
activation of CD8+ intraepithelial cells [4]: directly suppresses
T cell receptor-mediated activation of primary T cells [5]: does not inhibit T cell receptor-mediated activation
IL-15-mediated activation of mouse primary CD8+ T cells ([5]; IL-15+IL15Rα-Fc 4 days, DKK2 10 nM 24 hours): directly suppresses mouse primary CD8+
tumor immune responses elicited by PD-1 blockade [6]: inhibited PD-1 blockade-induced increases in the numbers of tumor-infiltrated CD45+ and CD8+ cells and activation of CD8+ and NK cells
